Where two headings read alike, the source gives them in different places.
Assays:
[1] = target: T1, HLA A2.1 molecule (Homo sapiens, UniProt P04439, D140Y/D185E/D98H/E176V/E277Q/G131W/G231S/I119V/I121R/I166T/I218V/L300P/L318F/N151K/N90K/P208A/P217A/Q86G/Q94H/R138H/R169H/T345S); format: binding
[2] = target: T1, HLA A2.1 molecule; assay: Stability of the peptide/HLA A2.1 complex (DC50) on T2 cells, flow cytometry; format: binding; conditions: for DC, Native peptides: HIV 1 peptides
Description: For each incubation time, the cells are then labeled, as indicated above, with the BB7.2 antibody, and analyzed by flow cytometry in order to evaluate the amount of peptide/HLA A2.1 complex present at their surface. […] The DC50 (dissociation complex: DC) is defined as being the time required for the loss of 50% of the HLA A2.1/peptide complexes stabilized at t=0.

[3] = system: HLA A2.1+/hTERT+ human tumor cells U266; assay: Human CTLs tested for killing of U266 tumor cells; format: cell-based; conditions: E/T 40/1, 20/1, 10/1; FIG. 10
Description: CTLs generated from human PBMCs, originating from healthy donors, stimulated in vitro with autologous dendritic cells loaded with the variant peptide mhp 572Y1 or the variant peptide mhp 988Y1 were tested for their ability to kill HLA A2.1+/hTERT+ human tumor cells: U266 [VONDERHEIDE, Immunity, 10, 11, (1999)], or HSS HLA A2.1−/hTERT+ human tumor cells: [VONDERHEIDE, Immunity, 10, 11, (1999)].

[4] = system: RMA-HHH cells infected with recombinant vaccinia virus expressing gag or pol of HIV1; format: cell-based, human
[5] = system: RMAS-HHD targets loaded with peptide; assay: Immunogenicity: CTL generation in HHD transgenic mice, 51Cr lysis of peptide-loaded targets; format: in vivo; conditions: for immunogenicity (in words): HHD mice (also humans); for Responders/total mice: HHD mice, 100 μg peptide s.c., responder: specific cytotoxicity >15% above unloaded targets
[6] = system: RMAS-HHD cells loaded with peptide; assay: Vax1/pet-neu immunization: CTL lysis of peptide-loaded RMAS-HHD cells; format: in vivo, HHD mice; conditions: CTLs of a Vax1/pet-neu immunized mouse; RMAS-HHD targets loaded with the named peptide; FIG. 14
Description: One week after the final immunization, their spleen cells are restimulated in vitro with B cells activated with LPS and loaded with each of the twelve peptides.
The cytotoxicity is evaluated using RMAS-HHD cells (target cells) loaded with the peptide corresponding to that with which the B cells were loaded or with a control peptide.
Six mice are immunized with either the Vax1/pet-neu construct or the vector Vax1. Their spleen cells are stimulated in vitro in a repeated manner with the B cells activated with LPS and loaded with each peptide to be tested (effector cells).
The cytotoxicity is tested after the third stimulation in vitro. The RMAS-HHD cells, loaded with the peptide corresponding to that with which the B cells were loaded, or with a control peptide, and the EL-4/HHD/neu cells are used as target cells.

[7] = system: EL-4/HHD/neu tumor cells; assay: Antitumor protection after peptide vaccination, EL-4/HHD/neu graft; conditions: 10 HHD mice, two injections two weeks apart; EL-4/HHD/neu graft
[8] = native TERT peptides, reference peptide HIVpol 589
[9] = native peptides, relative affinity vs reference peptide HIVpol 589, lower RA = stronger binding

Question: For DLQVNSLQTV [mhp 988], which RA [1, 8] is on record?
Answer: 28.6

Question: What about the DC50 ([2]; native TERT peptides) of the same sequence?
Answer: <2 h

Question: And the “lysis of U266 tumor cells / natural presentation by human tumor cells” value [3]?
Answer: naturally presented by the human tumor cells

Question: For EMMTACQGV [E9V], which “natural presentation by cells expressing HLA-A2.1 and the viral protein” value [4] is on record?
Answer: naturally presented

Question: What about the “RA, P1Y peptides” value [1] of the same sequence?
Answer: 1.7

Question: And the “DC, P1Y peptides” value [2]?
Answer: >6 h

Question: What about the “DC, Native peptides” value [2] of the same sequence?
Answer: <2 h

Question: And the “immunogenicity (in words)” value [5]?
Answer: not immunogenic

Question: Which “natural presentation by cells expressing HLA-A2.1 and the viral protein” value [4] does the source give for LLDTGADDTV [L10V] here?
Answer: naturally presented

Question: What about the “RA, P1Y peptides” value [1] of the same sequence?
Answer: 1.5

Question: What about the “RA, Native peptides” value ([1]; HIV 1 peptides, […]) of the same sequence?
Answer: 10

Question: And the “DC, P1Y peptides” value [2]?
Answer: 4 h

Question: And the “DC, Native peptides” value [2]?
Answer: <2 h

Question: And the “immunogenicity (in words)” value [5]?
Answer: not immunogenic

Question: “QLMPYGCLL [HER-2/neu 799, reference compound]” was tested. Which “specific lysis above background noise” value [6] did it give?
Answer: 30%

Question: What about the RA [1, 9] of the same sequence?
Answer: 1.0

Question: And the “DC50 Y1-DC50 WT” value ([2]; […], arrow in neighbouring cell gives direction)?
Answer: >2 h

Question: And the “DC50” value ([2]; native peptides, time for loss of 50% of HLA A2.1/peptide complexes)?
Answer: 6 to 8 h

Question: What about the Responders/total mice [5] of the same sequence?
Answer: 3/4

Question: What does the source list for RLFFYRKSV [mhp 572]?
Answer: RA [1, 8]: 25.3; DC50 ([2]; native TERT peptides): <2 h; lysis of U266 tumor cells / natural presentation by human tumor cells [3]: naturally presented by the human tumor cells

Question: RLLQETELV [HER-2/neu 689] was tested. Which “specific lysis above background noise” value [6] did it give?
Answer: 30%

Question: What about the Responders/total mice [5] of the same sequence?
Answer: 5/6

Question: “VMAGVGSPYV [HER-2/neu 773, reference compound]” was tested. Which “specific lysis above background noise” value [6] did it give?
Answer: 30%

Question: What about the RA [1, 9] of the same sequence?
Answer: 1.7

Question: And the Responders/total mice [5]?
Answer: 2/3

Question: YLEEITGYL [HER-2/neu 402Y1] was tested. Which “tumor size at D28” value [7] did it give?
Answer: 323±116 mm^2

Question: What about the “specific lysis above background noise” value [6] of the same sequence?
Answer: 30%

Question: What about the RA [1] of the same sequence?
Answer: 3.7

Question: And the “DC50” value [2]?
Answer: 4 h

Question: With YLQPEQLQV [HER-2/neu 391Y1] as the sequence, how does the “specific lysis above background noise” value [6] read?
Answer: 30%

Question: And the RA [1]?
Answer: 1.3

Question: What about the “DC50” value [2] of the same sequence?
Answer: 6 h
